Measured values: patent publication US20170355757A1 (Regeneron, published 2017)
Changes are numbered by the printed parent chain. Numbers in names are those of the source.

T1: monkey C5-mmh (monkey, UniProt P01031 19-1676 (human entry), limits assumed)
T1 construct: recombinant, with C-terminal myc-myc-hexahistidine tag
T1 chain: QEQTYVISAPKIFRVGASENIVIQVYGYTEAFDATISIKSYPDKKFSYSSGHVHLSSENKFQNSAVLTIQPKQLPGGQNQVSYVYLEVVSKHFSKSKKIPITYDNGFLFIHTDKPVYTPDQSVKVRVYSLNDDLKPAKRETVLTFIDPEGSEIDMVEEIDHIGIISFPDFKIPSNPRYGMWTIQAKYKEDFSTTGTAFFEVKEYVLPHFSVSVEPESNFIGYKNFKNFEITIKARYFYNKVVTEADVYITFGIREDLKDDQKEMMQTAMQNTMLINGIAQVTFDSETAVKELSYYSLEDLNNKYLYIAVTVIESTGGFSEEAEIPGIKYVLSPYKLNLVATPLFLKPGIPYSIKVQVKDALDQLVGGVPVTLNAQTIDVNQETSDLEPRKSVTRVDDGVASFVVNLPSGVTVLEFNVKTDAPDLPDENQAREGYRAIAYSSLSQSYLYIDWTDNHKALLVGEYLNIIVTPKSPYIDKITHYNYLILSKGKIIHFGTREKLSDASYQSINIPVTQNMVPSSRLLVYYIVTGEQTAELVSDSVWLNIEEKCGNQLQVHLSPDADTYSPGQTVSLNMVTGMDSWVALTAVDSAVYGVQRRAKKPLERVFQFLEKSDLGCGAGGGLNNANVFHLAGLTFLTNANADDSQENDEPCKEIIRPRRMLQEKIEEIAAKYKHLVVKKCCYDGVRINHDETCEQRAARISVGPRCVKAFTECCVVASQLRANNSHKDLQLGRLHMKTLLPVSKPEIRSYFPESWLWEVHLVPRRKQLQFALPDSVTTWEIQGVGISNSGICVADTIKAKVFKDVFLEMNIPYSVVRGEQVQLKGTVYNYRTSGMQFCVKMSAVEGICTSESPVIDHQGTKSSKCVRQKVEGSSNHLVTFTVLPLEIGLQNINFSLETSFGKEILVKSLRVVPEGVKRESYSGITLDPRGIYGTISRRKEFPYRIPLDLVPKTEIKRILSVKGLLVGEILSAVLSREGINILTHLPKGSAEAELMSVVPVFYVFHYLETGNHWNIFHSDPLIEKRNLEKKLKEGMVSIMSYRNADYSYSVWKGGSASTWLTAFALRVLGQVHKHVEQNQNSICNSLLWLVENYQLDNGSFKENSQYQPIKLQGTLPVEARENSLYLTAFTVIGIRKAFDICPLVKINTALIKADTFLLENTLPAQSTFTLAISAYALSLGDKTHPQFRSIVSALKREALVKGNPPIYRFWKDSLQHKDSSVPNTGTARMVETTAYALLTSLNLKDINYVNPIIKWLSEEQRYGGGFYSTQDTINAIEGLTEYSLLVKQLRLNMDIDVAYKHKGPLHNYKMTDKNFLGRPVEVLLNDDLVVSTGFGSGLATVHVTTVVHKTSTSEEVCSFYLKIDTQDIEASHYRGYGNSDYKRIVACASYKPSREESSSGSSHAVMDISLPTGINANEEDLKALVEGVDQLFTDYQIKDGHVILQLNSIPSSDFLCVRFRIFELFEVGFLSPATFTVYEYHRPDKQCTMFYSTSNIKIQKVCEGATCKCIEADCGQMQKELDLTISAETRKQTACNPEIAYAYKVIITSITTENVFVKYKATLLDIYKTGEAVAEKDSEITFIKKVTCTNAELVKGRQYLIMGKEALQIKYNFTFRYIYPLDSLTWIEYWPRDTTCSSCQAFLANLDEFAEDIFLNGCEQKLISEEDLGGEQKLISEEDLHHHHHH

B1: H4H12166P2 (antibody, human IgG4, V domains shown)
VH: QVQLQESGPGLVKPSETLSLTCTVSGDSVSSSYWTWIRQPPGKGLEWIGYIYYSGSSNYNPSLKSRATISVDTSKNQFSLKLSSVTAADTAVYYCAREGNVDTTMIFDYWGQGTLVTVSS
VL: AIQMTQSPSSLSASVGDRVTITCRASQGIRNDLGWYQQKPGKAPKLLIYAASSLQSGVPSRFAGRGSGTDFTLTISSLQPEDFATYYCHQDFNYPWTFGQGTKVEIK
notes: histidine-mutated CDR variant of H4H12166P; human IgG4 (S108P)
B2: H4H12166P3 (antibody, human IgG4, V domains shown)
VH: B1 VH with G99H
VL: B1 VL with H89L
B3: H4H12175P (antibody, human IgG4, V domains shown)
VH: EVQLVESGGGVVQPGGSLRLSCAASGFTFNDYAMHWVRQAPGKGLEWVSLISGDGGNTYYADSVKGRLTISRDNSKNSLYLQMNSLRTEDTALYYCAKDKGWNFGYFDLWGRGTLVTVSS
VL: DIQMTQSPSSLSTSVGDRVTITCRASQNIDTYLNWYQQKPGKAPKLLIYDASSLQSGVPSRFSGSGSGTDFTLTITSLQPEDFATYYCQQNDNILHPLTFGGGTKVEIK
notes: H4H: human IgG4 Fc with S108P hinge mutation
B4: H4H12171P (antibody, human IgG4, V domains shown)
VH: EVQLVESGGGVVRPGGSLRLSCAASGFTFDEYGMTWVRQVPGKGLEWVSGITWNGGFTDYTDSVKGRFTSSRDNAKNSLYLQMNSLRAEDTALYYCARDGYSSSWGAYDIWGQGTMVTVSS
VL: DIQMTQSPSSLSASVGDRVTITCRASQSISTYLNWYQQKPGKAPKLLIYAASSLQSGVPLRFSGSGSGTDFTLTISSLQPEDFASYFCQQSYSTPYTFGQGTKLEIK
notes: as for B3
B5: H4H12164P (antibody, human IgG4, V domains shown)
VH: EVQLVESGGGLVRSGGSLRLSCAASGFTFNRYAMTWVRQAPGKGLEWVSAISGSGSSTYYTDSVKGRFTISRDNSKNSVDLQMHSLRVEDTAIYYCARGTTVTTGYGMDVWGQGTTVTVSS
VL: DIQMTQSPSSLSASVGDRVTFTCQASQDITNSLNWYQQKPGRAPKLLIYDASYLKAGVPSRFSGSGSGTDFTFTISSLQPEDIATYYCQQYDDLPYTFGQGTKLEIK
notes: as for B3

Legend:
human C5 [1] = molecular target: T2, human C5 (human, UniProt P01031 19-1676); assay: cell-based or functional assay
African green monkey C5 [2] = molecular target: T3, African green monkey C5 (African green monkey); assay: cell-based or functional assay
human C5 R885H-mmh [3] = molecular target: T4, human C5 R885H-mmh (human, UniProt P01031 19-1676); assay: cell-based or functional assay
human C5 R885C-mmh [4] = molecular target: T5, human C5 R885C-mmh (human, UniProt P01031 19-1676); assay: cell-based or functional assay
human C5 [5] = molecular target: T2, human C5; assay: cell-based or functional assay; remark: listed apart in the source
human C5 [6] = molecular target: T2, human C5; assay: SPR (Biacore), mAb captured, dissociation of human C5 at pH7.4 vs pH6.0, 37°C
Outline: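 Anti-C5 mAbs (human IgG4 Fc) captured on an amine-coupled mouse anti-human Fc surface; recombinant C5 dissociation followed by Biacore T200 in PBS-T (0.01M phosphate, 0.15M NaCl, 0.05% Tween-20) at pH7.4 or pH6.0. Dissociative half-life (t½) calculated from kd.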

human C5 [7] = molecular target: T2, human C5; assay: cell-based or functional assay; remark: listed apart in the source
African green monkey C5 [8] = molecular target: T3, African green monkey C5; assay: cell-based or functional assay; remark: listed apart in the source
human C5 R885H-mmh [9] = molecular target: T4, human C5 R885H-mmh; assay: cell-based or functional assay; remark: listed apart in the source
human C5 R885C-mmh [10] = molecular target: T5, human C5 R885C-mmh; assay: cell-based or functional assay; remark: listed apart in the source
human C5 [11] = molecular target: T2, human C5; assay: cell-based or functional assay; remark: listed apart in the source
African green monkey C5 [12] = molecular target: T3, African green monkey C5; assay: cell-based or functional assay; remark: listed apart in the source
Cynomolgus monkey C5 = Cynomolgus monkey C5 (cynomolgus monkey, UniProt A0A2K5U1T1 19-1676); assay: cell-based or functional assay
monkey C5-mmh [13] = molecular target: T1, monkey C5-mmh; assay: SPR (Biacore), mAb captured, dissociation of monkey C5 at pH7.4 vs pH6.0, 25°C
monkey C5-mmh [14] = molecular target: T1, monkey C5-mmh; assay: SPR (Biacore), mAb captured, dissociation of monkey C5 at pH7.4 vs pH6.0, 37°C

| Binder | IC50, inhibition of CDC of Daudi cells, 1.66% African Green monkey serum, 10 nM anti-CD20 antibody (African green monkey C5 [2]) [nM] | IC50, inhibition of CDC of Daudi cells, C5 depleted human serum and 6.6 nM C5 Variant R885H, 7 nM anti-CD20 antibody (human C5 R885H-mmh [3]) [nM] | t½ Ratio pH7.4/pH6.0 (human C5 [6]) | IC50, inhibition of CDC of Daudi cells, 1.66% human serum (human C5 [7]) [nM] | IC50, inhibition of CDC of Daudi cells, 1.66% African Green monkey serum (African green monkey C5 [8]) [nM] | IC50, inhibition of CDC of Daudi cells, C5 depleted human serum and 6.6 nM C5 Variant R885H (human C5 R885H-mmh [9]) [nM] | IC50, inhibition of CDC of Daudi cells, C5 depleted human serum and 6.6 nM C5 Variant R885C (human C5 R885C-mmh [10]) [nM] | Human AP % Max Inhibition, hemolysis assay, NHS (human C5 [11]) [%] | Human AP IC50, hemolysis assay, NHS (human C5 [11]) [nM] | Human CP % Max Inhibition, hemolysis assay, NHS (human C5 [11]) [%] | Human CP IC50, hemolysis assay, NHS (human C5 [11]) [nM] | AGM AP % Max Inhibition, hemolysis assay, 5% serum (African green monkey C5 [12]) [%] | AGM CP % Max Inhibition, hemolysis assay, 5% serum (African green monkey C5 [12]) [%] | AGM Serum AP IC50, hemolysis assay, 5% serum (African green monkey C5 [12]) [nM] | Cyno AP % Max Inhibition, hemolysis assay, 5% serum (Cynomolgus monkey C5) [%] | Cyno CP % Max Inhibition, hemolysis assay, 5% serum (Cynomolgus monkey C5) [%] | Cyno Serum AP IC50, hemolysis assay, 5% serum (Cynomolgus monkey C5) [nM] | Cyno Serum CP IC50, hemolysis assay, 5% serum (Cynomolgus monkey C5) [nM] | t½ Ratio pH7.4/pH6.0 (monkey C5-mmh [13]) | t½ Ratio pH7.4/pH6.0 (monkey C5-mmh [14]) | further results |
| --- | --- | --- | --- | --- | --- | --- | --- | --- | --- | --- | --- | --- | --- | --- | --- | --- | --- | --- | --- | --- | --- |
| B1 | 9.7 | 1.7 | 7.3 | – | – | – | – | – | – | – | – | – | – | – | – | – | – | – | – | – | IC50, inhibition of CDC of Daudi cells, 1.66% human serum, 2 nM anti-CD20 antibody (human C5 [1]): 3.7 nM; IC50, inhibition of CDC of Daudi cells, C5 depleted human serum and 6.6 nM C5 Variant R885C, 30 nM anti-CD20 antibody (human C5 R885C-mmh [4]): 1.2 nM; Human AP % Max Inhibition, hemolysis assay, 5% NHS (human C5 [5]): 81.3%; Human AP IC50, hemolysis assay, 5% NHS (human C5 [5]): 47.8 nM; Human CP % Max Inhibition, hemolysis assay, 5% NHS (human C5 [5]): 98.2%; Human CP IC50, hemolysis assay, 5% NHS (human C5 [5]): 15.9 nM |
| B2 | > 30 | 2.9 | – | – | – | – | – | – | – | – | – | – | – | – | – | – | – | – | – | – | Max % Inhibition of CDC of Daudi cells, 1.66% African Green monkey serum, 10 nM anti-CD20 antibody (African green monkey C5 [2]): 64%; IC50, inhibition of CDC of Daudi cells, C5 depleted human serum and 6.6 nM C5 Variant R885C, 30 nM anti-CD20 antibody (human C5 R885C-mmh [4]): 1.7 nM |
| B3 | – | – | 0.9 | 2.2 | 5.2 | 4.2 | > 20 | 80.2 | 20 | 98 | 2.36 | 17.4 | 84.5 | 98.5 | 98.1 | 96.7 | 8.05 | 10.9 | 3.6 | 0.4 | AGM Serum CP IC50, hemolysis assay, 5% serum (African green monkey C5 [12]): 118 nM |
| B4 | – | – | 3.7 | 1.9 | 3.3 | 1.6 | 0.65 | 42 | 15.5 | 94.9 | 2.33 | 69.7 | 17.8 | 23.3 | 98.8 | 92.9 | 7.2 | 8.7 | 2.1 | 4.7 | – |
| B5 | – | – | ≤ 0.1 | 2.4 | 5.8 | 1.8 | 0.82 | 69.7 | 14.5 | 95.9 | 2.1 | 15.6 | 85.8 | 178 | 98.7 | 94.7 | 9.1 | 19.6 | 2.9 | 1.1 | AGM Serum CP IC50, hemolysis assay, 5% serum (African green monkey C5 [12]): 247 nM |
